Earlier results on one substance are cited in patent publication US20210330752A1, “FEED SUPPLEMENTS” (OmniGen Research, LLC, priority 2018, published 2021).

The subject of this data set is binding protein.

Regarding Insulin-like growth factor-1 [IGF-1], the “IGF-1 in plasma bound to a binding protein” value is “more than 99%”.
